Results from US20060188526A1, “Method for enhancing the immune response to Staphylococcus aureus infection” (priority 2005, published 2006).

How the values were obtained:
[1] = molecular target: T1, C3b bound to S. aureus surface (Homo sapiens, UniProt P01024); assay: C3-fragments bound to C3b-coated S. aureus with factor H, factor I or both (ELISA, Western blot); assay type: biochemical
T1 construct: purchased Advance Research Technologies, San Diego, Calif
Protocol: Opsonization with purified complement components. Washed bacteria (1×10^9 CFU in GVBS^++ buffer) were incubated with 0.35% IVIg for 30 min. at room temperature in order to sensitize the bacteria for activating the classical complement pathway. Antibody-coated bacteria were then incubated in 60% DGVBS^++ buffer with the purified human complement proteins C1, C4, C2, and C3 to generate the classical complement pathway C3-convertase and bind C3b to the S. aureus surface. Bacteria were incubated with C1 (2 μg/ml) at 30° C. for 15 min., and then with C4 (10 μg/ml) at 37° C. for 45 min. Bacteria were then incubated with C2 (0.5 μg/ml) and C3 (10 μg/ml) together at 30° C. for 30 min. C3b-coated staphylococci were then incubated with factor H (40 μg/ml), factor 1 (4 μg/ml), or both factors for 30 min. at 37° C. The bacteria pellet was then sedimented and the supernatants recovered to measure C3-fragments released from the bacteria. The bacteria were then washed and treated with 0.05 ml of 25 mM methylamine (Sigma-Aldrich) for 60 min. at 37° C. to recover C3-fragments bound by ester bonds to the S. aureus surface. The stripped bacteria were sedimented and the supernatants containing previously surface bound C3-fragments were recovered for testing by ELISA and Western blot. […]
(§1) Analysis of surface-bound and released C3-fragments. ELISA was used to quantitate total C3-fragment amount and iC3b amount as follows. […] Plates were washed 3 three times with PBS/Tween buffer and developed with TMB Plus (Accurate Chemical), stopped with 2.5 N H2SO4, and read at 450 nm.
Values for C3-fragments bound and iC3b bound to S. aureus opsonized in serum were calculated subtracting the values obtained with heat inactivated serum from the values obtained with NHS. Methylamine supernatants of surface bound C3-fragments were analyzed by Western blot analysis performed with polyclonal goat anti-human C3 antibody (Advanced Research Technologies) and horseradish peroxidase-labeled rabbit anti-goat antibody (Sigma-Aldrich). Bound antibody was detected by enhanced chemiluminescence.

[2] = molecular target: T1, C3b bound to S. aureus surface; assay: C3-fragments released from C3b-coated S. aureus with factor H, factor I or both (C3 ELISA, Western blot); assay type: biochemical
Protocol: Opsonization with purified complement components. Washed bacteria (1×10^9 CFU in GVBS^++ buffer) were incubated with 0.35% IVIg for 30 min. at room temperature in order to sensitize the bacteria for activating the classical complement pathway. Antibody-coated bacteria were then incubated in 60% DGVBS^++ buffer with the purified human complement proteins C1, C4, C2, and C3 to generate the classical complement pathway C3-convertase and bind C3b to the S. aureus surface. Bacteria were incubated with C1 (2 μg/ml) at 30° C. for 15 min., and then with C4 (10 μg/ml) at 37° C. for 45 min. Bacteria were then incubated with C2 (0.5 μg/ml) and C3 (10 μg/ml) together at 30° C. for 30 min. C3b-coated staphylococci were then incubated with factor H (40 μg/ml), factor 1 (4 μg/ml), or both factors for 30 min. at 37° C. […]
as §1
Values for C3-fragments bound and iC3b bound to S. aureus opsonized in serum were calculated subtracting the values obtained with heat inactivated serum from the values obtained with NHS. […] Bound antibody was detected by enhanced chemiluminescence.

[3] = tested on: C3b-coated S. aureus phagocytosis by human polymorphonuclear leukocytes (PMN); assay: Phagocytosis assay, C3b-coated S. aureus (purified complement components) incubated with factor H, factor I or both; assay type: cell-based; conditions: compared with untreated C3b-coated S. aureus, factor H 40 μg/ml, factor I 4 μg/ml
Protocol: Bacterial strains and growth. Staphylococcus aureus strain Reynolds, capsule polysaccharide serotype 5, was used in all experiments. This strain has a pattern of C3-fragment deposition similar to other capsule polysaccharide serotype 5 and 8 strains—the serotypes that account for the majority of human S. aureus infections. Mid-logarithmic phase bacteria were grown in Columbia 2% NaCl broth at 37° C. with agitation for 2 hours to an optical densitometry of 0.7 to 1.3 at 600 nm. In midlogarithmic phase growth minimal capsule is expressed by strain Reynolds.
Opsonization with purified complement components. Washed bacteria (1×10^9 CFU in GVBS^++ buffer) were incubated with 0.35% IVIg for 30 min. at room temperature in order to sensitize the bacteria for activating the classical complement pathway. Antibody-coated bacteria were then incubated in 60% DGVBS^++ buffer with the purified human complement proteins C1, C4, C2, and C3 to generate the classical complement pathway C3-convertase and bind C3b to the S. aureus surface. […]
Phagocytosis assay. […] Bacteria and PMN were visualized by fluorescence microscopy using broad wavelength excitation and emission filters that allow visualization at 100× magnification. Microscope slides were blinded to the reader, and 100 neutrophils per slide were counted to determine the percent of PMN phagocytosing bacteria and total number of S. aureus ingested.

T1 sequence (P01024 749-1663): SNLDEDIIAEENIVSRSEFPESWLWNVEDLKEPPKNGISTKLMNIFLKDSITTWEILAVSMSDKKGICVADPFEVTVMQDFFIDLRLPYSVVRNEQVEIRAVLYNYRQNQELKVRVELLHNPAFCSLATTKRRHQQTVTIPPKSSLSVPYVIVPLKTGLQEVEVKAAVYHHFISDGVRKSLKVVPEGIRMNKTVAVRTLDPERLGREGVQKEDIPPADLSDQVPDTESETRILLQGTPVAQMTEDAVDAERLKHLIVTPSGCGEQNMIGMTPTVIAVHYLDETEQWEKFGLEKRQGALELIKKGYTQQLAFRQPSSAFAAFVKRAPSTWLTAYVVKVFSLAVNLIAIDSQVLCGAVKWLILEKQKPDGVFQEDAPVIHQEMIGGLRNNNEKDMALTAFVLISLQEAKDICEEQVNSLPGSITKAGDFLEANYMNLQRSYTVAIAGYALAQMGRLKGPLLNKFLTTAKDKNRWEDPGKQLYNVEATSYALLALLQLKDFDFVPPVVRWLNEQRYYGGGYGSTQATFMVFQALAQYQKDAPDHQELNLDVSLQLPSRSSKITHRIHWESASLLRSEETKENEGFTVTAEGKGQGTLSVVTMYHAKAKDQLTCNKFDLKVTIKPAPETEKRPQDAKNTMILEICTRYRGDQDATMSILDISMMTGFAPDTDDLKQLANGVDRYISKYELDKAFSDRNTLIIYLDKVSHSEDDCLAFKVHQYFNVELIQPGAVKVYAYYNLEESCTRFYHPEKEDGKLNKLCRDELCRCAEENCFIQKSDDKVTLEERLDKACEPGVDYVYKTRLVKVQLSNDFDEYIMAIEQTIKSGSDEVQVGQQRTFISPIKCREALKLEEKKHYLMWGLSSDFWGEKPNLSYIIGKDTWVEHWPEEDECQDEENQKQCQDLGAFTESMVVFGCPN
T1 sequence (P01024 23-667): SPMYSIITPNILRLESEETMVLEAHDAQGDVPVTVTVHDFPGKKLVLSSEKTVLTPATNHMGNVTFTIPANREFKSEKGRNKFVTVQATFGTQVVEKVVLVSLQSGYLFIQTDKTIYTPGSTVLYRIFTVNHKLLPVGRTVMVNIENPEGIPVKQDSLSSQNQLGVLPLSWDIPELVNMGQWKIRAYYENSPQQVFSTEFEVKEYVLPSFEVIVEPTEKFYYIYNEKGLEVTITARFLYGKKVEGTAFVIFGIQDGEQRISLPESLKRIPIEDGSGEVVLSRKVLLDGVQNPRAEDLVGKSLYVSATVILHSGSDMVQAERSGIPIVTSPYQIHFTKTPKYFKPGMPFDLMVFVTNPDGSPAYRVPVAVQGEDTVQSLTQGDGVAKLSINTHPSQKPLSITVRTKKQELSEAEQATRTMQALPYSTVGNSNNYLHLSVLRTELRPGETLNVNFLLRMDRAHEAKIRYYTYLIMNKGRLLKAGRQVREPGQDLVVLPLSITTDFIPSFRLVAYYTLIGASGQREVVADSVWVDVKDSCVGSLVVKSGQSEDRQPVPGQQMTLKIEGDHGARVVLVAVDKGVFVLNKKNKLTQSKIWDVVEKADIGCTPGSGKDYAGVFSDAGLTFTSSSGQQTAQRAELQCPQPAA

B1: factor I: purified human complement regulatory protein factor I, serum enzyme that cleaves C3b to iC3b (protein, UniProt P05156 19-583, looked up)
Complement factor I: KVTYTSQEDLVEKKCLAKKYTHLSCDKVFCQPWQRCIEGTCVCKLPYQCPKNGTAVCATNRRSFPTYCQQKSLECLHPGTKFLNNGTCTAEGKFSVSLKHGNTDSEGIVEVKLVDQDKTMFICKSSWSMREANVACLDLGFQQGADTQRRFKLSDLSINSTECLHVHCRGLETSLAECTFTKRRTMGYQDFADVVCYTQKADSPMDDFFQCVNGKYISQMKACDGINDCGDQSDELCCKACQGKGFHCKSGVCIPSQYQCNGEVDCITGEDEVGCAGFASVTQEETEILTADMDAERRRIKSLLPKLSCGVKNRMHIRRKRIVGGKRAQLGDLPWQVAIKDASGITCGGIYIGGCWILTAAHCLRASKTHRYQIWTTVVDWIHPDLKRIVIEYVDRIIFHENYNAGTYQNDIALIEMKKDGNKKDCELPRSIPACVPWSPYLFQPNDTCIVSGWGREKDNERVFSLQWGEVKLISNCSKFYGNRFYEKEMECAGTYDGSIDACKGDSGGPLVCMDANNVTYVWGVVSWGENCGKPEFPGVYTKVANYFDWISYHVGRPFISQYNV
- decrease of amount of total C3-fragments bound to C3b-coated S. aureus ([1]; C3 ELISA, compared to control bacteria (no factor H or I exposure), FIG. 4B): 58%
- types of C3-fragments bound to the S. aureus surface, Western blot ([1]; compared with untreated C3b-coated S. aureus, FIG. 4C): less C3b and more iC3b
- increase of amount of iC3b bound to S. aureus ([1]; iC3b ELISA, compared with untreated C3b-coated bacteria, FIG. 4A): 75%
- amounts of C3-fragments shed from the S. aureus surface ([2]; C3 ELISA, compared with incubation in buffer alone, FIG. 5A): increased significantly
- form of C3-fragments shed, Western blot with polyclonal anti-C3 antibody ([2]; FIG. 5B): likely iC3b or possibly C3c
- decrease of percent of neutrophils phagocytosing C3b-coated S. aureus ([3]; FIG. 3A): 29%
- decrease of number of C3b-coated S. aureus phagocytosed by 100 neutrophils ([3]; FIG. 3B): 40%
